Starred links: 1 amine or outer side, 2 acyl side, 3 side chain; linkers in the order of their positions; H or OH if unused. Non-standard residues stand in square brackets, D forms with d. Groups on a side chain read outwards from the residue. No end group written: not given here. *: point of attachment. C20 diacid = O=C(O)CCCCCCCCCCCCCCCCCCC(=O)*; C18 diacid = O=C(O)CCCCCCCCCCCCCCCCC(=O)*; γGlu = O=C(O)[C@H](CCC(=O)[*:2])N[*:1]; αMeF = C[C@](N)(Cc1ccccc1)C(=O)O; AEEA = NCCOCCOCC(=O)O; Aib = CC(C)(N)C(=O)O
B1: Peptide 151 (peptide)
peptide: H[Aib]QGTFTSDVSK[αMeF]LDSK([AEEA-AEEA-γGlu-C20 diacid])RAQDFVRWLL[Aib]TE-OH
modifications: N-terminus assumed
SMILES: CC(C)C[C@H](NC(=O)[C@H](Cc1c[nH]c2ccccc12)NC(=O)[C@H](CCCNC(=N)N)NC(=O)[C@@H](NC(=O)[C@H](Cc1ccccc1)NC(=O)[C@H](CC(=O)O)NC(=O)[C@H](CCC(N)=O)NC(=O)[C@H](C)NC(=O)[C@H](CCCNC(=N)N)NC(=O)[C@H](CCCCNC(=O)COCCOCCNC(=O)COCCOCCNC(=O)CC[C@H](NC(=O)CCCCCCCCCCCCCCCCCCC(=O)O)C(=O)O)NC(=O)[C@H](CO)NC(=O)[C@H](CC(=O)O)NC(=O)[C@H](CC(C)C)NC(=O)[C@](C)(Cc1ccccc1)NC(=O)[C@H](CCCCN)NC(=O)[C@H](CO)NC(=O)[C@@H](NC(=O)[C@H](CC(=O)O)NC(=O)[C@H](CO)NC(=O)[C@@H](NC(=O)[C@H](Cc1ccccc1)NC(=O)[C@@H](NC(=O)CNC(=O)[C@H](CCC(N)=O)NC(=O)C(C)(C)NC(=O)[C@@H](N)Cc1c[nH]cn1)[C@@H](C)O)[C@@H](C)O)C(C)C)C(C)C)C(=O)N[C@@H](CC(C)C)C(=O)NC(C)(C)C(=O)N[C@H](C(=O)N[C@@H](CCC(=O)O)C(=O)O)[C@@H](C)O
B2: Peptide 152 (peptide)
peptide: H[Aib]QGTFTSDVSK[αMeF]LDSK([AEEA-AEEA-γGlu-C18 diacid])RAQDFVRWLL[Aib]E-OH
modifications: N-terminus assumed
SMILES: CC(C)C[C@H](NC(=O)[C@H](Cc1c[nH]c2ccccc12)NC(=O)[C@H](CCCNC(=N)N)NC(=O)[C@@H](NC(=O)[C@H](Cc1ccccc1)NC(=O)[C@H](CC(=O)O)NC(=O)[C@H](CCC(N)=O)NC(=O)[C@H](C)NC(=O)[C@H](CCCNC(=N)N)NC(=O)[C@H](CCCCNC(=O)COCCOCCNC(=O)COCCOCCNC(=O)CC[C@H](NC(=O)CCCCCCCCCCCCCCCCC(=O)O)C(=O)O)NC(=O)[C@H](CO)NC(=O)[C@H](CC(=O)O)NC(=O)[C@H](CC(C)C)NC(=O)[C@](C)(Cc1ccccc1)NC(=O)[C@H](CCCCN)NC(=O)[C@H](CO)NC(=O)[C@@H](NC(=O)[C@H](CC(=O)O)NC(=O)[C@H](CO)NC(=O)[C@@H](NC(=O)[C@H](Cc1ccccc1)NC(=O)[C@@H](NC(=O)CNC(=O)[C@H](CCC(N)=O)NC(=O)C(C)(C)NC(=O)[C@@H](N)Cc1c[nH]cn1)[C@@H](C)O)[C@@H](C)O)C(C)C)C(C)C)C(=O)N[C@@H](CC(C)C)C(=O)NC(C)(C)C(=O)N[C@@H](CCC(=O)O)C(=O)O
B3: Peptide 153 (peptide)
peptide: H[Aib]QGTFTSDVSK[αMeF]LDSK([AEEA-AEEA-γGlu-C20 diacid])RAQDFVRWLL[Aib]E-OH
modifications: N-terminus assumed
SMILES: CC(C)C[C@H](NC(=O)[C@H](Cc1c[nH]c2ccccc12)NC(=O)[C@H](CCCNC(=N)N)NC(=O)[C@@H](NC(=O)[C@H](Cc1ccccc1)NC(=O)[C@H](CC(=O)O)NC(=O)[C@H](CCC(N)=O)NC(=O)[C@H](C)NC(=O)[C@H](CCCNC(=N)N)NC(=O)[C@H](CCCCNC(=O)COCCOCCNC(=O)COCCOCCNC(=O)CC[C@H](NC(=O)CCCCCCCCCCCCCCCCCCC(=O)O)C(=O)O)NC(=O)[C@H](CO)NC(=O)[C@H](CC(=O)O)NC(=O)[C@H](CC(C)C)NC(=O)[C@](C)(Cc1ccccc1)NC(=O)[C@H](CCCCN)NC(=O)[C@H](CO)NC(=O)[C@@H](NC(=O)[C@H](CC(=O)O)NC(=O)[C@H](CO)NC(=O)[C@@H](NC(=O)[C@H](Cc1ccccc1)NC(=O)[C@@H](NC(=O)CNC(=O)[C@H](CCC(N)=O)NC(=O)C(C)(C)NC(=O)[C@@H](N)Cc1c[nH]cn1)[C@@H](C)O)[C@@H](C)O)C(C)C)C(C)C)C(=O)N[C@@H](CC(C)C)C(=O)NC(C)(C)C(=O)N[C@@H](CCC(=O)O)C(=O)O
B4: Peptide 166 (peptide)
peptide: H[Aib]QGTFTSDVSK[αMeF]LDSK([AEEA-AEEA-γGlu-C18 diacid])RARDFVRWLL[Aib]TE-OH
modifications: N-terminus assumed
SMILES: CC(C)C[C@H](NC(=O)[C@H](Cc1c[nH]c2ccccc12)NC(=O)[C@H](CCCNC(=N)N)NC(=O)[C@@H](NC(=O)[C@H](Cc1ccccc1)NC(=O)[C@H](CC(=O)O)NC(=O)[C@H](CCCNC(=N)N)NC(=O)[C@H](C)NC(=O)[C@H](CCCNC(=N)N)NC(=O)[C@H](CCCCNC(=O)COCCOCCNC(=O)COCCOCCNC(=O)CC[C@H](NC(=O)CCCCCCCCCCCCCCCCC(=O)O)C(=O)O)NC(=O)[C@H](CO)NC(=O)[C@H](CC(=O)O)NC(=O)[C@H](CC(C)C)NC(=O)[C@](C)(Cc1ccccc1)NC(=O)[C@H](CCCCN)NC(=O)[C@H](CO)NC(=O)[C@@H](NC(=O)[C@H](CC(=O)O)NC(=O)[C@H](CO)NC(=O)[C@@H](NC(=O)[C@H](Cc1ccccc1)NC(=O)[C@@H](NC(=O)CNC(=O)[C@H](CCC(N)=O)NC(=O)C(C)(C)NC(=O)[C@@H](N)Cc1c[nH]cn1)[C@@H](C)O)[C@@H](C)O)C(C)C)C(C)C)C(=O)N[C@@H](CC(C)C)C(=O)NC(C)(C)C(=O)N[C@H](C(=O)N[C@@H](CCC(=O)O)C(=O)O)[C@@H](C)O
B5: Peptide 518 (peptide)
peptide: H[Aib]QGTFTSDVSK[αMeF]LDTK([AEEA-AEEA-γGlu-γGlu-C18 diacid])RARDFVQWLLE[Aib]G-OH
modifications: N-terminus assumed
SMILES: CC(C)C[C@H](NC(=O)[C@H](Cc1c[nH]c2ccccc12)NC(=O)[C@H](CCC(N)=O)NC(=O)[C@@H](NC(=O)[C@H](Cc1ccccc1)NC(=O)[C@H](CC(=O)O)NC(=O)[C@H](CCCNC(=N)N)NC(=O)[C@H](C)NC(=O)[C@H](CCCNC(=N)N)NC(=O)[C@H](CCCCNC(=O)COCCOCCNC(=O)COCCOCCNC(=O)CC[C@H](NC(=O)CC[C@H](NC(=O)CCCCCCCCCCCCCCCCC(=O)O)C(=O)O)C(=O)O)NC(=O)[C@@H](NC(=O)[C@H](CC(=O)O)NC(=O)[C@H](CC(C)C)NC(=O)[C@](C)(Cc1ccccc1)NC(=O)[C@H](CCCCN)NC(=O)[C@H](CO)NC(=O)[C@@H](NC(=O)[C@H](CC(=O)O)NC(=O)[C@H](CO)NC(=O)[C@@H](NC(=O)[C@H](Cc1ccccc1)NC(=O)[C@@H](NC(=O)CNC(=O)[C@H](CCC(N)=O)NC(=O)C(C)(C)NC(=O)[C@@H](N)Cc1c[nH]cn1)[C@@H](C)O)[C@@H](C)O)C(C)C)[C@@H](C)O)C(C)C)C(=O)N[C@@H](CC(C)C)C(=O)N[C@@H](CCC(=O)O)C(=O)NC(C)(C)C(=O)NCC(=O)O
B6: Peptide 519 (peptide)
peptide: H[Aib]QGTFTSDVSK[αMeF]LDTK([γGlu-γGlu-AEEA-AEEA-γGlu-γGlu-C18 diacid])RARDFVQWLLE[Aib]G-OH
modifications: N-terminus assumed
SMILES: CC(C)C[C@H](NC(=O)[C@H](Cc1c[nH]c2ccccc12)NC(=O)[C@H](CCC(N)=O)NC(=O)[C@@H](NC(=O)[C@H](Cc1ccccc1)NC(=O)[C@H](CC(=O)O)NC(=O)[C@H](CCCNC(=N)N)NC(=O)[C@H](C)NC(=O)[C@H](CCCNC(=N)N)NC(=O)[C@H](CCCCNC(=O)CC[C@H](NC(=O)CC[C@H](NC(=O)COCCOCCNC(=O)COCCOCCNC(=O)CC[C@H](NC(=O)CC[C@H](NC(=O)CCCCCCCCCCCCCCCCC(=O)O)C(=O)O)C(=O)O)C(=O)O)C(=O)O)NC(=O)[C@@H](NC(=O)[C@H](CC(=O)O)NC(=O)[C@H](CC(C)C)NC(=O)[C@](C)(Cc1ccccc1)NC(=O)[C@H](CCCCN)NC(=O)[C@H](CO)NC(=O)[C@@H](NC(=O)[C@H](CC(=O)O)NC(=O)[C@H](CO)NC(=O)[C@@H](NC(=O)[C@H](Cc1ccccc1)NC(=O)[C@@H](NC(=O)CNC(=O)[C@H](CCC(N)=O)NC(=O)C(C)(C)NC(=O)[C@@H](N)Cc1c[nH]cn1)[C@@H](C)O)[C@@H](C)O)C(C)C)[C@@H](C)O)C(C)C)C(=O)N[C@@H](CC(C)C)C(=O)N[C@@H](CCC(=O)O)C(=O)NC(C)(C)C(=O)NCC(=O)O
B7: Peptide 33 (peptide)
peptide: H[Aib]QGTFTSDVSK[αMeF]LDSK([AEEA-AEEA-γGlu-C18 diacid])RAQDFVQWLE[Aib]T-OH
modifications: N-terminus assumed
SMILES: CC(C)C[C@H](NC(=O)[C@H](Cc1c[nH]c2ccccc12)NC(=O)[C@H](CCC(N)=O)NC(=O)[C@@H](NC(=O)[C@H](Cc1ccccc1)NC(=O)[C@H](CC(=O)O)NC(=O)[C@H](CCC(N)=O)NC(=O)[C@H](C)NC(=O)[C@H](CCCNC(=N)N)NC(=O)[C@H](CCCCNC(=O)COCCOCCNC(=O)COCCOCCNC(=O)CC[C@H](NC(=O)CCCCCCCCCCCCCCCCC(=O)O)C(=O)O)NC(=O)[C@H](CO)NC(=O)[C@H](CC(=O)O)NC(=O)[C@H](CC(C)C)NC(=O)[C@](C)(Cc1ccccc1)NC(=O)[C@H](CCCCN)NC(=O)[C@H](CO)NC(=O)[C@@H](NC(=O)[C@H](CC(=O)O)NC(=O)[C@H](CO)NC(=O)[C@@H](NC(=O)[C@H](Cc1ccccc1)NC(=O)[C@@H](NC(=O)CNC(=O)[C@H](CCC(N)=O)NC(=O)C(C)(C)NC(=O)[C@@H](N)Cc1c[nH]cn1)[C@@H](C)O)[C@@H](C)O)C(C)C)C(C)C)C(=O)N[C@@H](CCC(=O)O)C(=O)NC(C)(C)C(=O)N[C@H](C(=O)O)[C@@H](C)O

target: human glucagon receptor (hGCGR) (human, UniProt P47871 26-477); test: cell-based or functional assay
Sequence (P47871 26-477): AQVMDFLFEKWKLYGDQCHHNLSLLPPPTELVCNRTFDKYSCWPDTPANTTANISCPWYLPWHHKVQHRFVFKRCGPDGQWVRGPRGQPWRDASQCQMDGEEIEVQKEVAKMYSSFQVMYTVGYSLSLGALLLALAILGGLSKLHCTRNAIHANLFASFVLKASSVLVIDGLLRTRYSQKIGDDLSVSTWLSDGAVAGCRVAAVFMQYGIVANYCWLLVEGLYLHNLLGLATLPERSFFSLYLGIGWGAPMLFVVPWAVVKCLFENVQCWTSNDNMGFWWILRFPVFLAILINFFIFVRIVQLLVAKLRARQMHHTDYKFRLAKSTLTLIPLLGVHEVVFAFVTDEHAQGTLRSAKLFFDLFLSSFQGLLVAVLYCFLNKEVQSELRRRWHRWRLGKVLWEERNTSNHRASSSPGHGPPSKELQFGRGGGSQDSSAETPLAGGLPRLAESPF

Binder	hGluc-R EC50 (pM)
B1	178 pM
B2	20.4 pM
B3	99 pM
B4	270 pM
B5	77.3 pM
B6	386 pM
H[Aib]QGTFTSDVSK[αMeF]LDTKRARDFVQWLLE[Aib]G-OH (not fully specified (residue 17)) [Peptide 520]	1620 pM
B7	548 pM

target: human GLP-1 receptor (hGLP-1R) (human, UniProt P43220 24-463); test: cell-based or functional assay

Binder	hGLP-1R EC50 (pM)
B1	111 pM
B2	11.9 pM
B3	41.2 pM
B4	48 pM
B5	31 pM
B6	172 pM
H[Aib]QGTFTSDVSK[αMeF]LDTKRARDFVQWLLE[Aib]G-OH (not fully specified (residue 17)) [Peptide 520]	543 pM
B7	213 pM

Reference: US20230357348A1 (AstraZeneca / MedImmune, published 2023)
